The data set has as its target recombinant PHB2.

Sequence of recombinant PHB2 (chain, as listed by the source): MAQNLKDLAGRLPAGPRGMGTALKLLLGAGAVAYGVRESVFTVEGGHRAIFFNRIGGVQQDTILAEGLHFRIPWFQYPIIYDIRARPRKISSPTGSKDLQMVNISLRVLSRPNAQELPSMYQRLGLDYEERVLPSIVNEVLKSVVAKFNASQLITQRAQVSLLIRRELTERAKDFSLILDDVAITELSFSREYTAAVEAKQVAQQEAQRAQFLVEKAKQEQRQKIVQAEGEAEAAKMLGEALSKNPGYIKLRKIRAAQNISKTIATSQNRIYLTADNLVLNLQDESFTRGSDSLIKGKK

B1: recombinant TTK (protein)
chain: MESEDLSGRELTIDSIMNKVRDIKNKFKNEDLTDELSLNKISADTTDNSGTVNQIMMMANNPEDWLSLLLKLEKNSVPLSDALLNKLIGRYSQAIEALPPDKYGQNESFARIQVRFAELKAIQEPDDARDYFQMARANCKKFAFVHISFAQFELSQGNVKKSKQLLQKAVERGAVPLEMLEIALRNLNLQKKQLLSEEEKKNLSASTVLTAQESFSGSLGHLQNRNNSCDSRGQTTKARFLYGENMPPQDAEIGYRNSLRQTNKTKQSCPFGRVPVNLLNSPDCDVKTDDSVVPCFMKRQTSRSECRDLVVPGSKPSGNDSCELRNLKSVQNSHFKEPLVSDEKSSELIITDSITLKNKTESSLLAKLEETKEYQEPEVPESNQKQWQSKRKSECINQNPAASSNHWQIPELARKVNTEQKHTTFEQPVFSVSKQSPPISTSKWFDPKSICKTPSSNTLDDYMSCFRTPVVKNDFPPACQLSTPYGQPACFQQQQHQILATPLQNLQVLASSSANECISVKGRIYSILKQIGSGGSSKVFQVLNEKKQIYAIKYVNLEEADNQTLDSYRNEIAYLNKLQQHSDKIIRLYDYEITDQYIYMVMECGNIDLNSWLKKKKSIDPWERKSYWKNMLEAVHTIHQHGIVHSDLKPANFLIVDGMLKLIDFGIANQMQPDTTSVVKDSQVGTVNYMPPEAIKDMSSSRENGKSKSKISPKSDVWSLGCILYYMTYGKTPFQQIINQISKLHAIIDPNHEIEFPDIPEKDLQDVLKCCLKRDPKQRISIPELLAHPYVQIQTHPVNQMAKGTTEEMKYVLGQLVGLNSPNSILKAAKTLYEHYSGGESHNSSSSKTFEKKRGKK
In the case of B1, the “phosphorylation of PHB2 (Phos-tag SDS-PAGE), molar ratio PHB2:TTK=1:2 or greater” value is “a band for 75% phosphorylation was clearly detected” and the “phosphorylation of PHB2 (Phos-tag SDS-PAGE), molar ratio TTK:PHB2 1:1” value amounted to 28% phosphorylation.

B2: recombinant MK5 (protein)
chain: MSEESDMDKAIKETSILEEYSINWTQKLGAGISGPVRVCVKKSTQERFALKILLDRPKARNEVRLHMMCATHPNIVQIIEVFANSVQFPHESSPRARLLIVMEMMEGGELFHRISQHRHFTEKQASQVTKQIALALRHCHLLNIAHRDLKPENLLFKDNSLDAPVKLCDFGFAKIDQGDLMTPQFTPYYVAPQVLEAQRRHQKEKSGIIPTSPTPYTYNKSCDLWSLGVIIYVMLCGYPPFYSKHHSRTIPKDMRRKIMTGSFEFPEEEWSQISEMAKDVVRKLLKVKPEERLTIEGVLDHPWLNSTEALDNVLPSAQLMMDKAVVAGIQQAHAEQLANMRIQDLKVSLKPLHSVNNPILRKRKLLGTKPKDSVYIHDHENGAEDSNVALEKLRDVIAQCILPQAGKGENEDEKLNEVMQEAWKYNRECKLLRDTLQSFSWNGRGFTDKVDRLKLAEIVKQVIEEQTTSHESQ
On to B2, for which the “phosphorylation of PHB2 (Phos-tag SDS-PAGE), molar ratio PHB2:MK5=1:0.25” value was 6.5% phosphorylation and the “phosphorylation of PHB2 (Phos-tag SDS-PAGE), molar ratio PHB2:MK=1:2 or more” value was “a band for 75% phosphorylation was detected”.

For the origin of these results see patent US20200255474.
